In this experiment the target is Human intelectin-1 (ITLN1) of human ileal lysates, genotype at residue 109 not told for the sentence (human (endogenous in ileum)) (UniProt Q8WWA0). The experiment is described as follows: non-reducing SDS-PAGE immunoblot; human ileal lysates (150 mM NaCl, 1% Triton X-100, 0.5% sodium deoxycholate, 0.1% SDS, 50 mM Tris pH 8.0), heated at 95 °C for 30 min without 2-mercaptoethanol, gradient SDS-PAGE (4-20%), immunoblot; oligomers stable under denaturing conditions. (In western blotting, separated proteins are transferred to a membrane and probed.)

Broadly, the stoichiometry N is a count of units in the complex or per binding partner.

Where “and” joins values, the source holds several entries; their conditions need not be identical. Equal entries are not always repeated.

Regarding “Human intelectin-1 (ITLN1) of human ileal lysates, genotype at residue 109 not told for the sentence (from UniProt Q8WWA0 19-298) (natural protein)”, the stoichiometry N was 3 and 6.

Source of the values: publication PMC8213764.
